Assay results reported in the supplement of paper PMC9170038.

Tested on: MS2 coat protein
Experiment: apparent KD of MS2 coat protein; designed switch direction (-1 OFF switch, 1 ON switch): -1; higher = weaker reporter binding
In short: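 Normalised cluster fluorescence was curve-fitted, and each design's median over clusters is its apparent KD. Before this, SNAP-549-labelled MS2 coat protein was titrated from 0.7 or 1.5 nM, doubling to 3 µM, over RNA switches transcribed on Illumina chips by stalled E. coli RNA polymerase. Titrations had no input, 200 uM small-molecule ligand, or an oligonucleotide input, and steps lasted 0.8–1.5 h (lowest) to 10–20 min (highest).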

[1] = Eterna round: R95, input ligand: FMN 200 uM
[2] = Eterna round: R95, input ligand: microRNA oligo, concentration not stated
[3] = Eterna round: R95, input ligand: none
[4] = input ligand: microRNA oligo, concentration not stated

| Sequence | apparent KD of MS2 coat protein (input ligand: FMN 200 uM) [nM] | apparent KD of MS2 coat protein (input ligand: none) [nM] | apparent KD of MS2 coat protein [1] [nM] | apparent KD of MS2 coat protein [2] [nM] | apparent KD of MS2 coat protein [3] [nM] | apparent KD of MS2 coat protein [4] [nM] |
| --- | --- | --- | --- | --- | --- | --- |
| AUUAGCGUAGGAUAUUGAUACAUGUACAUGAGGAUCACCCAUGUGAGGUGAGUCUUCGAUUAAGAAGGGCGCAGAA [EX5 #39] (Eterna round: R97, puzzle: Exclusion 5) | 82.6 | 1210 | – | – | – | – |
| UACGGGUCAGGAUAUGCGAGGGAGUGGGAAAUAGGAAGGUAGCAGAAGGGACAUGAGGAUCACCCAUGUAAGGA [JR_Exclu4_Sub0100] (puzzle: Exclusion 4) | – | – | 38.5 | 31.2 | 34.6 | – |
| ACCAGUGGAGGAUAUACAUGAGGAUCACCCAUGUGUUGAAUAGGUGGAGAACCACAAAGUAGAAGGCCACUGGA [jl-ex3-4.79 jandersonlee automod] (Eterna round: R97, puzzle: Exclusion 3) | 1000 | 76.6 | – | – | – | – |
| AAGAAACAUGAGGAUCACCCAUGUGAGGAUAUGGCCCGCCCGGCGUGAGCUGGUUUUAUCAGAAGGCACAAAGG [salish99_ex1_r4_015] (Eterna round: R97, puzzle: Exclusion 1) | 39.4 | 44.6 | – | – | – | – |
| AAGCUCACACGCUCGUCUUACAUGAGGAUCACCCAUGUCGCCGAGCUUCACAGGCUGAAGCUCAUAUAGGGUCAUGA [Eternabot (L2) Solution 26] (Eterna round: R97, puzzle: Sensor, turn-off variant 1) | 85.1 | 91.7 | – | – | – | – |
| AAUAAAUAGGAGGAUAUCGUAUCGGAAACGAUACGAGAAGGUCUAACAUGAGGAUCACCCAUGUUCCUCAAUAA [Mat - Exclusion 6 - Eli Mod - D45] (puzzle: Exclusion 6) | – | – | – | 39.4 | – | – |
| UUCGUGCAGCUUUGCUGUACGCGUACAUGAGGAUCACCCAUGUAGGAUAUGGUAGGCUUUGCUUACUAGAAGGAUAGUGUGAUC [JL EXNG3 1.30] (Eterna round: R96, puzzle: Exclusion NG 3) | 137 | 88.7 | – | – | – | 123 |
| ACAUGAGGAUCACCCAUGUCUGGCUGGUCUGCUCCGGUUGUUGAGGAUAUAGUUCGGUGUUCGCGCUAGAAGGUGAGGGCUGGC [Aenatbe mod 38] (Eterna round: R96, puzzle: Exclusion NG 3) | 34.4 | 39 | – | – | – | 32.1 |
| ACACUGCGAGGAUAUACAUGAGGAUCACCCAUGUGUCGGCAGCCACGGUAGCACUAGUGUAGAAGGCGCAUUAG [EX3 #42] (Eterna round: R97, puzzle: Exclusion 3) | 41.1 | 28.3 | – | – | – | – |
| UCACCUGGGUCAGGAUAUAAAGGGUCAGGAAGUUUAGAAGGGACUUAGGACAUGAGGAUCACCCAUGUUGAGAACUCGUUUGUA [Eternabot solution 25] (Eterna round: R96, puzzle: Exclusion NG 1) | 46.2 | 36.7 | – | – | – | 27.5 |
| UAAGAGUGAGGAUAUACGUCGCUGGUCGGGAUGGACGCAUGACAUGAGGAUCACCCAUGUAGAAGGCACAAAAC [Enxela Mod 10 - Jieux - Exclusion 2] (Eterna round: R97, puzzle: Exclusion 2) | 87.6 | 25.4 | – | – | – | – |
| GAUUAUGCGAGCUUUAGGGACAUGAGGAUCACCCAUGUUCGUCUUAUUAAUCUAGGUGCACUAACAUACCUAAAUCU [JMF 32] (puzzle: Sensor v3, turn-off variant 1) | – | – | 21.9 | 39.4 | 21.7 | – |
| CCUCCGUAUUAGGAUAUCGUCCCGGAAACGGGACGAGAAGGAAUGACAUGAGGAUCACCCAUGUUAACGUGAUG [Mod of Brourd 20 - Jieux - Exclusion 6] (Eterna round: R97, puzzle: Exclusion 6) | 48.9 | 20.7 | – | – | – | – |
| UAUUAAACAAGCAGAUCCCACAUGAGGAUCACCCAUGUGCUCGUCUUAUAAGGUACUGUGACGAUAGUCACGGUACC [Mat - Sensor, turn-off var - Eli Mod - D62] (Eterna round: R97, puzzle: Sensor, turn-off variant 1) | 49 | 54.5 | – | – | – | – |
| UGAAUGUGAGGAUAUGGUGAGUAGUGCCAGAGCGCUGCUCACCAGAAGGCACAUGAGGAUCACCCAUGUACUUG [Mat - Exclusion 4 - Mod of JL - D18] (puzzle: Exclusion 4) | – | – | – | 47.8 | – | – |
| GGAUCAUGAGGAUAUCGAGGUUAGUACAUGAGGAUCACCCAUGUUAUCCAGGUCUCGUUUCGAGAAGGCAUGAUCC [LRO-Ex5-10] (puzzle: Exclusion 5) | – | – | – | 21.2 | – | – |
| AUAAUUAAUCGAGGAUAUCAGCACGAUUAGUGCUGAGAAGGCGACAUGAGGAUCACCCAUGUGAUCAAUUAAUAUUAAUAUUAU [ENG1/11-C1] (Eterna round: R96, puzzle: Exclusion NG 1) | 1630 | 808 | – | – | – | 626 |

| Sequence | apparent KD of MS2 coat protein (input ligand: FMN 200 uM) [nM] | apparent KD of MS2 coat protein (input ligand: none) [nM] | apparent KD of MS2 coat protein [1] [nM] | apparent KD of MS2 coat protein [2] [nM] | apparent KD of MS2 coat protein [3] [nM] | apparent KD of MS2 coat protein [4] [nM] |
| --- | --- | --- | --- | --- | --- | --- |
| ACGCGAUAUGGCGUAACGCGACAUGAGGAUCACCCAUGUAACGAGGAUAUGAUCUCGAGAGAGGGUCAGAAGGCGUUACAAUAU [Eternabot solution 23] (Eterna round: R96, puzzle: Exclusion NG 3) | 130 | 74.3 | – | – | – | 70.7 |
| AGUACCUGAGUACAAAGUAACAUGAGGAUCACCCAUGUAAAUGGGUGAGAACAAGCUCACCGUUCGUCUUAAAUAAA [JL turnoff v1 79] (Eterna round: R96, puzzle: Sensor v2, turn-off variant) | 584 | 618 | – | – | – | 38.8 |
| CCAUGAUAAGGAUAUUGAAGGUUCGACAUGAGGAUCACCCAUGUUAUGUUGGAAAAGGGACAAGAAGGUAUGAAUU [salish99_ex5_r4_220] (Eterna round: R97, puzzle: Exclusion 5) | 34.7 | 35.1 | – | – | – | – |
| AAAAAACAUGAGGAUCACCCAUGUGAGGAUAUGCUAAAAAAAUCCGCAUGAAAAAAUAGCAGAAGGCACAUAAA [PK2] (Eterna round: R96, puzzle: Exclusion 1) | 93.5 | 36.2 | – | – | – | 27.2 |
| GCAAGCUUUUGCUCGUCUUACAUGAGGAUCACCCAUGUCGGGUUCGGUCGUCGCGGCUGGGCUUGCCGGGCGCCGGG [-28.7, -55.8 kcal, A 10%] (Eterna round: R97, puzzle: Sensor, turn-off variant 1) | 215 | 244 | – | – | – | – |
| CUGGUCCGAGGAUAUAUUAAGUGAAACAUGAGGAUCACCCAUGUAAUUUAAUGGAUGUAAAUAGAAGGCGGACUAG [Mat - Exclusion 5 - JL mod - D39] (puzzle: Exclusion 5) | – | – | 38.9 | 35.3 | 36.4 | – |
| UUAUACGUUGAGGAUAUGCGAUUUAGUAUAGUUGUAGAAGGCGAUACAUGAGGAUCACCCAUGUUUAUGGGCAU [LRO-Ex6-08] (puzzle: Exclusion 6) | – | – | – | 268 | – | – |
| UUUUAACAUGAGGAUCACCCAUGUGAGGAUAUCGAAAUUUAUAUUUAUAUUAAUAAUUCGAGAAGGCACAUUUU [JMF 77] (puzzle: Exclusion 1) | – | – | – | 155 | – | – |
| GAGUGGCAAGGAUAUACAGUGGAGAGGAUGGCAAGAGGUGGACAUGAGGAUCACCCAUGUAGAAGGUGCAGAGA [JR_Exclu2_Sub024] (puzzle: Exclusion 2) | – | – | – | 150 | – | – |
| GAAAAGAAGCUAGGAUAUGCAUGACGGAUACCCGUGAGCACGUAGCAGACAUGAGGAUCACCCAUGUAGAAGGAGCGAAGAAAU [Veteriat] (Eterna round: R96, puzzle: Exclusion NG 2) | 251 | 52.8 | – | – | – | 43.6 |
| UACAUGAGGAUCACCCAUGUUUUGUCGUGUAUGGUAUUUAUCUAGGAUAUCAUAUUAUUUAUUUAUGAGAAGGAGAAUAUUAAU [JMF's solution 95] (Eterna round: R96, puzzle: Exclusion NG 3) | 45.8 | 26.9 | – | – | – | 27.1 |
| AGAUGGCGAGGAUAUACAUGAGGAUCACCCAUGUGAGAGAAGAAAGUGAGGAAGAAAAGUAGAAGGCGCUGUCA [Mat - Exclusion 3 - Mod of Salish D11] (puzzle: Exclusion 3) | – | – | 184 | 54.4 | 60 | – |
| CCUGUGUAAGGAUAUGACAAUGGUAUCUUCGGAUACCAUUGUCAGAAGGUACAUGAGGAUCACCCAUGUAACAC [Ex4-3: 13] (puzzle: Exclusion 4) | – | – | – | 14.8 | – | – |
| UAAUUAAAUGUGAGGAUAUGCUGGUCCUUGGAUCAGCAGAAGGCACAUGAGGAUCACCCAUGUAAUUUAUUUAU [Mat - Exclusion 4 - JL Mod - D59] (puzzle: Brourd's mod of Exclusion 4) | – | – | – | 54.3 | – | – |
| AUCAGCUCGUGAGGAUAUACAUGCGUGCUUCGGCACGUAUGAUAGAUCACAUGAGGAUCACCCAUGUAGAAGGCACGAGCUGAU [ENG2/4-A3] (Eterna round: R96, puzzle: Exclusion NG 2) | 15.1 | 13.4 | – | – | – | 12.1 |
| AAACUCCCGGCAACCGGGAACAUGAGGAUCACCCAUGUGGCGUGACUCAUACGGGCUUUUUGUUCGUUUUAUUCACG [Xeisororer] (puzzle: Sensor v3, turn-off variant 1) | – | – | 53.4 | 27.7 | 63.6 | – |
| AAGUAUAGAGGAUAUAGUGAGUACUACAUGAGGAUCACCCAUGUUCUUCAAAGCGUACUUCUAGAAGGCUGUUAAA [EX-5 Malc#17] (puzzle: Exclusion 5) | – | – | 452 | 263 | 214 | – |
